Assay results taken from patent US20190275087A1, “EXPANSION AND DIFFERENTIATION OF STEM CELLS” (Allergan Pharmaceuticals International Limited, priority 2018, published 2019).

Legend:
MSCs [1] = experiment: MSC attachment to substrate-bound tropoelastin (EDTA inhibition, cation add-back); assay type: cell-based, Human; details: cation-free environment
Method: MSCs were seeded at a density of 1.5×10^5 cells/cm^2 on tropoelastin-coated wells in serum-free α-MEM containing 0-9 mM ethylenediaminetetraacetic acid (EDTA) (Sigma-Aldrich®). The cells were incubated for 1 hour at 37° C., then washed with PBS to remove unbound cells. Bound cells were fixed, stained and measured for absorbance at 570 nm as described for the proliferation assays. The percentage of cell attachment was determined relative to a set of standards with known cell numbers.
MSCs were washed with cation-free PBS, centrifuged at 270 g for 5 min, and resuspended in cation-free PBS. The cells were seeded at a density of 1.5×10^5 cells/cm^2 on tropoelastin-coated wells in the presence of 0-0.5 mM cation (Mg^2+, Ca^2+ or Mn^2+) and incubated for 45 min at 37° C. Bound cells were fixed and stained, and cell attachment was quantified as previously described.

MSCs [2] = experiment: Tri-lineage differentiation of MSCs expanded with tropoelastin; assay type: cell-based, Human; details: substrate-bound or soluble, replacing growth factors, normal or reduced serum media
Method: MSCs were grown in various media formulations and on bare or protein-coated tissue culture wells for 7 days. The expanded cells were harvested, re-seeded on TCP, and differentiated into the adipogenic, osteogenic and chondrogenic lineages using the hMSC Adipogenic BulletKit®, hMSC Osteogenic BulletKit®, and hMSC Chondrogenic BulletKit® (Lonza), respectively, following the manufacturer's instructions.
To confirm adipogenesis, cells that had been induced for 25 days were washed with PBS, fixed with 10% (v/v) formalin for 30 min, then washed with water. Cells were incubated with 60% (v/v) isopropanol for 5 min and stained for intracellular lipid droplets with 1.8 mg/mL Oil Red O in isopropanol for 20 min. Excess stain was removed with 5 washes of water.
To confirm osteogenesis, cells that had been induced for 14 days were fixed and stained for mineralized calcium deposits with Alizarin Red S, as previously described. Cells from the adipogenic and osteogenic experiments were imaged with a Zeiss Axio Vert.A1 microscope using an AxioCam 105 colour camera.
To confirm chondrogenesis, cell pellets that had been induced for 14 days were washed with PBS, embedded in 1.5% (w/v) agar containing 0.85% (w/v) NaCl, and fixed with 10% (v/v) formalin overnight. […]

MSCs [3] = experiment: Cell migration via chemotaxis (Boyden chamber); assay type: cell-based, Human; details: tropoelastin in solution, lower chamber
Method: Chemotaxis was measured using a fluorimetric 96-well Boyden chamber assay system (QCM Chemotaxis Cell Migration Assay, Millipore) according to the supplier's instructions. Normal, tropoelastin-supplemented, or growth factor-supplemented media was added to the lower chamber of the well plate, while MSCs were seeded at 14,300 cells/cm^2 in normal media into the upper chamber. Where indicated, integrin-blocking antibodies were added at optimized concentrations to the upper chamber with the cells. Cells that migrate through the permeable membrane into the lower chamber were detached and quantified. Normalized cell migration was calculated by subtracting the extent of undirected cell migration (where no chemoattractant was added to the lower chamber) from each experimental result.

[4] = test system: Human bone marrow-derived MSCs; experiment: MSC proliferation (crystal violet cell abundance); assay type: cell-based
Method: Human bone marrow-derived MSCs obtained from American Type Culture Collection (ATCC) were cultured in normal media, which consists of Alpha-Minimum Essential Medium (α-MEM) (Lonza) with 10% (v/v) FBS (Life Technologies) and 2.4 mM L-glutamine (Lonza), at 37° C. in a humidified normoxic incubator up to a maximum of 10 population doublings. Where indicated, the normal media was supplemented with 15 ng/mL IGF-1 (Life Technologies) and/or […] bFGF (Life Technologies), equivalent to the growth factor concentrations in the ATCC-recommended media. Cells were passaged once they reach 70-80% confluence.
Where indicated, tissue culture plastic wells were coated with 20 μg/mL recombinant human tropoelastin (Elastagen) or 2 μg/mL fibronectin (Sigma-Aldrich®) in PBS (10 mM phosphate, 150 mM NaCl, pH 7.4) at 4° C. overnight. The protein solution was removed, and wells were washed three times with PBS to remove unbound protein prior to cell seeding.
[…] To prevent protein adhesion on the tissue culture substrate, wells were pre-incubated with normal media for 5 hours to enable surface blocking by serum proteins prior to cell seeding in supplemented media.
Sub-confluent flasks of MSCs were treated with 0.05% (v/v) trypsin-EDTA (Sigma-Aldrich®) at 37° C. for 5 min to lift off adherent cells from the culture vessel. Trypsin was neutralized with two volumes of serum-containing growth media. Cells were centrifuged at 270 g for 5 min and resuspended in the required media. Cells were seeded at a density of 5000 cells/cm^2 on bare or protein-coated tissue culture plastic wells, in normal or supplemented media. Media was changed every 2 days. After specific time points, cells were fixed with 3% (v/v) formaldehyde at room temperature for 20 min, washed with PBS, then stained with 0.1% (w/v) crystal violet in 0.2 M MES buffer for 1 hour. Excess stain was washed off four times with reverse osmosis water. The retained stain was solubilized with 10% (v/v) acetic acid and sample absorbance values indicative of cell abundance were read at 570 nm. Sample absorbance values were subtracted by baseline values (corresponding to cell numbers in serum-free media, or cell numbers on day 1 post-seeding) and expressed as a fraction of the highest absorbance among all samples on day 7 post-seeding.

[5] = tropoelastin substrate, normal media
[6] = tropoelastin substrate, unsupplemented 7% FBS media, 7 days

B1: recombinant human tropoelastin (Elastagen) (ligand, UniProt P15502-2 27-724, looked up)
chain: GGVPGAIPGGVPGGVFYPGAGLGALGGGALGPGGKPLKPVPGGLAGAGLGAGLGAFPAVTFPGALVPGGVADAAAAYKAAKAGAGLGGVPGVGGLGVSAGAVVPQPGAGVKPGKVPGVGLPGVYPGGVLPGARFPGVGVLPGVPTGAGVKPKAPGVGGAFAGIPGVGPFGGPQPGVPLGYPIKAPKLPGGYGLPYTTGKLPYGYGPGGVAGAAGKAGYPTGTGVGPQAAAAAAAKAAAKFGAGAAGVLPGVGGAGVPGVPGAIPGIGGIAGVGTPAAAAAAAAAAKAAKYGAAAGLVPGGPGFGPGVVGVPGAGVPGVGVPGAGIPVVPGAGIPGAAVPGVVSPEAAAKAAAKAAKYGARPGVGVGGIPTYGVGAGGFPGFGVGVGGIPGVAGVPGVGGVPGVGGVPGVGISPEAQAAAAAKAAKYGVGTPAAAAAKAAAKAAQFGLVPGVGVAPGVGVAPGVGVAPGVGLAPGVGVAPGVGVAPGVGVAPGIGPGGVAAAAKSAAKVAAKAQLRAAAGLGAGIPGLGVGVGVPGLGVGAGVPGLGVGAGVPGFGAVPGALAAAKAAKYGAAVPGVLGGLGALGGVGIPGGVVGAGPAAAAAAAKAAAKAAQFGLVGAAGLGGLGVGGLGVPGVGGLGGIPPAAAAKAAKYGAAGLGGVLGGAGQFPLGGVAARPGFGLSPIFPGGACLGKACGRKRK
- MSC adhesion to tropoelastin (MSCs [1]): 20.0±2.1%
- differentiation capacity after expansion (MSCs [2]): exhibited the capacity for multi-lineage differentiation
- chemotactic response of MSCs (MSCs [3]): dose-dependent chemotactic response
- increase in cell proliferation compared to normal media or media with IGF-1 ([4]; 1 μg/mL in solution, 7 days): 18±5%
- increase in cell proliferation compared to normal media or media with IGF-1 ([4]; 20 μg/mL in solution, 7 days): 69±7%
- improved MSC proliferation over substrate-bound tropoelastin ([4]; 20 μg/mL in solution, 7 days post-seeding): 80±8%
- increase in MSC proliferation by substrate-bound tropoelastin over TCP ([4]; 7% FBS media with IGF-1, 7 days): 49±1%
- increase in MSC proliferation by substrate-bound tropoelastin over TCP ([4]; 7% FBS media with bFGF, 7 days): 40±3%
- increase in MSC proliferation by substrate-bound tropoelastin over TCP ([4]; 7% FBS media with both growth factors, 7 days): 29±3%
- increase in MSC proliferation by substrate-bound tropoelastin over TCP ([4]; 7% FBS, unsupplemented media, 7 days): 97±19%
- tropoelastin-mediated proliferative increase over bare TCP ([4]; 10% FBS media with IGF-1, 7 days): 41±1%
- tropoelastin-mediated proliferative increase over bare TCP ([4]; 10% FBS media with IGF-1 and bFGF, 7 days): 16±3%
- tropoelastin-mediated proliferative increase over bare TCP ([4]; 10% FBS media with bFGF, 7 days): 16±2%
- serum reduction at which cell expansion remained unaffected ([4]; 7 days post-seeding, substrate-bound tropoelastin without growth factors, or IGF-1 and bFGF in media on TCP): ≤ 40%
- serum reduction at which MSC numbers significantly decreased ([4]; coated surface, until 3 days post-seeding): 80%
- increase in cell numbers on tropoelastin-coated TCP over bare TCP ([4]; normal 10% (v/v) serum media, 7 days): 39±3%
- MSC propagation relative to bFGF ([4]; soluble 5 μg/mL, until 7 days post-seeding): comparable to bFGF
- MSC expansion relative to media containing both IGF-1 and bFGF ([4]; soluble 20 μg/mL, full serum media): equivalent to that in media containing both growth factors
- more potent than bFGF for MSC propagation ([4]; soluble 20 μg/mL, until 7 days post-seeding): 18±5%
- MSC expansion surpassing bFGF ([4]; soluble, at and above 1 μg/mL, 3 days post-seeding): up to 74±2%
- improved MSC proliferation compared to IGF-1 and bFGF in tandem ([4]; substrate-bound tropoelastin, 40% decrease in serum (6% FBS), 7 days): 23±3%
- serum reduction tolerated without deleterious effects to proliferation ([4]; surface-bound tropoelastin with growth factors in media, after 5 days post-seeding): ≤ 20%
- serum reduction allowed ([4]; surface-bound tropoelastin with growth factors in media, until 5 days post-seeding): 40%
- proliferation compared to cells on TCP in media with bFGF [4, 5]: similarly
- proliferation more than cells on TCP in media with IGF-1 [4, 5]: 36±3%
- decreased expansion compared to cells on TCP in media containing both IGF-1 and bFGF ([4]; tropoelastin substrate, normal media, no additional factors): 14±2%
- abundance compared to cells on TCP in media with both growth factors [4, 6]: equivalent in abundance
- greater expansion relative to cells on TCP in media with IGF-1 [4, 6]: 59±15%
- greater expansion relative to cells on TCP in media with bFGF [4, 6]: 37±13%
